Publication PMC4258113 (Journal of proteome research, 2013)
Where no end group is shown, it is not given here. Me3 = trimethyl-lysine (trimethylated lysine)

These binders were tested against T1, GST-tagged chromodomain (a.a. 1-90) of Drosophila melanogaster polycomb protein (Drosophila melanogaster, UniProt P26017 1-90) (assay: peptide or protein array).
T1 sequence (looked up): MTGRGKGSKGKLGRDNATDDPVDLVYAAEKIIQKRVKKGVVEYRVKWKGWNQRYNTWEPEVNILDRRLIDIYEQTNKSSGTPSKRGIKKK

Binder	binding result
RIHRLLRK(Me3)G [trimethylated histone peptide RIHRLLRKG (H2A1A, lysine site 35)]	binds
DSGKAKAK(Me3)A [trimethylated histone peptide DSGKAKAKA (H2AV, lysine site 15)]	binds
LATKAARK(Me3)S [trimethylated histone peptide LATKAARKS (H3.3, lysine site 27)]	binds
GRIHRHLK(Me3)S [trimethylated histone peptide GRIHRHLKS (H2AZ, lysine site 37)]	binds
EGTKAVTK(Me3)Y [trimethylated histone peptide EGTKAVTKY (H2B1A and other H2B, lysine site 117)]	binds
MDVVYALK(Me3)R [trimethylated histone peptide MDVVYALKR (H4, lysine site 91)]	binds
ASKDLKVK(Me3)R [trimethylated histone peptide ASKDLKVKR (H2AZ, H2AV, lysine site 79)]	binds
RTKQTARK(Me3)S [trimethylated histone peptide RTKQTARKS (H3.3, lysine site 9)]	binds
REIRRYQK(Me3)S [trimethylated histone peptide REIRRYQKS (H3.3, lysine site 56)]	binds
IQAVLLPK(Me3)K [trimethylated histone peptide IQAVLLPKK (H2A1 and other H2A, lysine site 117)]	binds
GGAKRHRK(Me3)V [trimethylated histone peptide GGAKRHRKV (H4, lysine site 20)]	binds
PRKQLATK(Me3)A [trimethylated histone peptide PRKQLATKA (H3.3, lysine site 23)]	binds
